To fix the notation:
B1: EcZapD WT (residues 1-247) (natural protein)
chain: MQTQVLFEHPLNEKMRTWLRIEFLIQQLTVNLPIVDHAGALHFFRNVSELLDVFERGEVRTELLKELDRQQRKLQTWIGVPGVDQSRIEALIQQLKAAGSVLISAPRIGQFLREDRLIALVRQRLSIPGGCCSFDLPTLHIWLHLPQAQRDSQVETWIASLNPLTQALTMVLDLIRQSAPFRKQTSLNGFYQDNGGDADLLRLNLSLDSQLYPQISGHKSRFAIRFMPLDTENGQVPERLDFELACC

Data set [1] deals with the molecule itself. Kind of data set: SEC-MALS. (In gel filtration, larger molecules generally elute earlier.)
The target in data set [2] is B1. Kind of data set: BLI. A general note: In BLI a coated tip is dipped into the sample, and binding shifts an interference pattern.
Data set [3] addresses T1, EcZapD E22R (residues 1-247) (E. coli, UniProt P36680 1-247, E22R).
T1 sequence: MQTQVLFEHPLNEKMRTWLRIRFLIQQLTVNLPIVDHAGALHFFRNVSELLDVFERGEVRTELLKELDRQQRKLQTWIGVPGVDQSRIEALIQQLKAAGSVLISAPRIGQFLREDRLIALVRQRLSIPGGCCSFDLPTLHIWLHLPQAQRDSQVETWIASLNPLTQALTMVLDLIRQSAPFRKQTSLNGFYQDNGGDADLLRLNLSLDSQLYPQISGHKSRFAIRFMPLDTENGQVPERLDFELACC
Kind of data set: BLI.

The target of data set [4] is T2, EcZapD H140R (residues 1-247) (E. coli, UniProt P36680 1-247, H140R).
T2 sequence: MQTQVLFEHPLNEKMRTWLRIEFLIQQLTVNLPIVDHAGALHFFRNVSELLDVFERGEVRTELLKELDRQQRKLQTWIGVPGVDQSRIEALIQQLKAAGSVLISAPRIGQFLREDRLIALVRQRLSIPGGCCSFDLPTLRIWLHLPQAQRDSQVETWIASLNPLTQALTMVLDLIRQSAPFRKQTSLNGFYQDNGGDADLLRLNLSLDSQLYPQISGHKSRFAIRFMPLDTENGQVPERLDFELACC
Kind of data set: BLI.

By stoichiometry N is commonly meant the number of molecules, sites or subunits per partner or assembly. By Kd is commonly meant a measure of binding affinity in units of concentration.

In the case of B1, in data set [1], the “stoichiometry N” value came out at 2.
As for KEPDYLDIPAFLRKQAD [GST-FtsZ_(367-383)], the figures for the Kd in data set [2], in data set [3] and in data set [4] were 4.4 ± 0.5 µM, 68 ± 2.2 µM and 16 ± 1 µM, respectively.
In turn, KEPDYLDIPAFLR [GST-FtsZ_(367-379)] had a Kd in data set [2] above 2000 µM.
On to KEPDYLDIPAFLRDQAD [GST-FtsZ_(367-383) K380D], for which binding in data set [2] was put at a Kd of 4.7 ± 0.5 µM.
